Measurements as given in patent US20200181262A1 (published 2020).

Legend:
[1] = biological target: T1, FcRn (analyte of the BIACORE studies of Tables 9-11, tables titled anti-human FcRn mAbs) (human, UniProt P55899 24-290; P61769 21-119); assay: SPR, antibody captured on protein A, FcRn 50-0.02 nM, 1:1 model
T1 construct: also called analyte (FcRn)
Procedure: For kinetic analysis, a 2-fold dilution range was selected from 50-0.02 nM FcRn. The association phase of FcRn analyte was monitored for 450 seconds, and dissociation was measured for 1500 seconds, at 40 μl/min. Fc1 was a reference channel and was subtracted from other flow cells to correct for non-specific binding. Kinetic values are based on a 1:1 binding model (Table 11).

[2] = biological target: T1, FcRn (analyte of the BIACORE studies of …); assay: SPR (BIACORE), antibody immobilized on CM5, FcRn injected, 1:1 Langmuir, pH 6.0
Procedure: (§1) Antibodies were diluted into 10 mM NaAc, pH 4.5, and immobilized onto BIACORE® CM5 chips to RU levels of approximately 500-1000. Analysis was performed by injection of FcRn at concentrations of 12-800 nM in 1×PBS-P at pH 7.4 or pH 6.0.

[3] = biological target: T1, FcRn (analyte of the BIACORE studies of …); assay: SPR (BIACORE), antibody immobilized on CM5, FcRn injected, 1:1 Langmuir, pH 7.4
Procedure: as §1

[4] = biological target: T2, recombinant human FcRn (Sino Biological Inc. Cat. No. CT009-H08H) (human, UniProt P55899 24-290; P61769 21-119); assay: scFv competition ELISA vs biotinylated parent murine antibody, captured FcRn, pH 6
T2 construct: Bought protein; also called hFcRn (SINO); immobilized FcRn
Procedure: (§2) A total of about 60 scFv antibodies from the VH CDR3 and VL CDR3 libraries were selected for further study. The scFv antibodies were prepared from bacterial periplasmic extracts, and tested by competition ELISA at pH 6.0 and pH 7.4. […] As in the ELISA used to test humanized variants, a 96 well flat bottom microtitre plate was pre-coated with 1 μg/ml of an FcRn antibody specific for an albumin-binding epitope distinct from the Fc-binding region. Binding was determined at pH 7.4 and pH 6.0.

[5] = biological target: T2, recombinant human FcRn (Sino Biological …); assay: scFv competition ELISA vs biotinylated parent murine antibody, captured FcRn, pH 7.4
Procedure: as §2

| fold decrease in IC50 (relative to humanized parent scFV) [4] | fold decrease in IC50 (relative to humanized parent scFV) [5] | Binder | also measured |
| --- | --- | --- | --- |
|  |  | H1VH1_Vκ2 antibody (antibody, IgG4, V domains shown) VH: QVQLVQSGAELKKPGASVKLSCKASGYTFTSYGISWVKQATGQGLEWIGEIYPRSGNTYYNEKFKGRATLTADKSTSTAYMELRSLRSEDSAVYFCARSTTVSPPPLWGTGTTVTVSS VL: DIQMTQSPSSLSASVGDRVTITCKASDHINNWLAWYQQKPGQAPRLLISGATSLETGVPSRFSGSGTGKDYTLTISSLQPEDFATYYCQQYWSTPYTFGGGTKVEIK | Kd [1]: 0.32 nM; koff [1]: 9.28e-05 s⁻¹; kon [1]: 289000 M⁻¹ s⁻¹ |
|  |  | VH1_A8/Vκ2_E8 IgG4 (antibody, V domains shown, bivalent IgG4, kappa; also called A8VH1E8Vκ2; A8/E8VK2) VH: QVQLVQSGAELKKPGASVKLSCKASGYTFTSYGISWVKQATGQGLEWIGEIYPRSGNTYYNEKFKGRATLTADKSTSTAYMELRSLKSEDSAVYFCARSTTVSPPAHWGTGTTVTVSS VL: DIQMTQSPSSLSASVGDRVTITCKASDHINNWLAWYQQKPGQAPRLLISGATSLETGVPSRFSGSGTGKDYTLTISSLQTEDFATYYCHQYYSTPYTFGGGTKVEIK | Kd [2]: 1.4 nM; koff [2]: 0.000438 s⁻¹; kon [2]: 319000 M⁻¹ s⁻¹; Kd [3]: 18.2 nM; koff [3]: 0.000679 s⁻¹; kon [3]: 43800 M⁻¹ s⁻¹ |
|  |  | VH1_G4/Vκ2_E8 IgG4 (antibody, V domains shown, bivalent IgG4, kappa; also called G4VH1E8Vκ2) VH: QVQLVQSGAELKKPGASVKLSCKASGYTFTSYGISWVKQATGQGLEWIGEIYPRSGNTYYNEKFKGRATLTADKSTSTAYMELRSLRSEDSAVYFCARSTTVSPPHLWGTGTTVTVSS VL: DIQMTQSPSSLSASVGDRVTITCKASDHINNWLAWYQQKPGQAPRLLISGATSLETGVPSRFSGSGTGKDYTLTISSLQTEDFATYYCHQYYSTPYTFGGGTKVEIK | Kd [2]: 1.3 nM; koff [2]: 0.000298 s⁻¹; kon [2]: 229000 M⁻¹ s⁻¹; Kd [3]: 13.1 nM; koff [3]: 0.000544 s⁻¹; kon [3]: 54300 M⁻¹ s⁻¹ |
| 17.1 fold | 36.4 fold | H1 VH1 scFv with humanized parental Vκ1 (scFv, from bacterial periplasmic extracts) scFv: QVQLVQSGAELKKPGASVKLSCKASGYTFTSYGISWVKQATGQGLEWIGEIYPRSGNTYYNEKFKGRATLTADKSTSTAYMELRSLRSEDSAVYFCARSTTVSPPPLWGTGTTVTVSSGGGGSGGGGSGGGGSDIQMTQSPSYLSASVGDRVTITCKASDHINNWLAWYQQKPGQAPRLLISGATSLETGVPSRFSGSGTGKDYTLTISSLQTEDFATYYCQQYWSTPYTFGGGTKVEIK |  |
| 14.2 fold | 23.8 fold | H2 VH1 scFv with humanized parental Vκ1 (scFv) scFv: QVQLVQSGAELKKPGASVKLSCKASGYTFTSYGISWVKQATGQGLEWIGEIYPRSGNTYYNEKFKGRATLTADKSTSTAYMELRSLRSEDSAVYFCARSTTVAPPAHWGTGTTVTVSSGGGGSGGGGSGGGGSDIQMTQSPSYLSASVGDRVTITCKASDHINNWLAWYQQKPGQAPRLLISGATSLETGVPSRFSGSGTGKDYTLTISSLQTEDFATYYCQQYWSTPYTFGGGTKVEIK |  |
| 6.5 fold | 9.29 fold | H4 VH1 scFv with humanized parental Vκ1 (scFv) scFv: QVQLVQSGAELKKPGASVKLSCKASGYTFTSYGISWVKQATGQGLEWIGEIYPRSGNTYYNEKFKGRATLTADKSTSTAYMELRSLRSEDSAVYFCARSTTVSAPGVWGTGTTVTVSSGGGGSGGGGSGGGGSDIQMTQSPSYLSASVGDRVTITCKASDHINNWLAWYQQKPGQAPRLLISGATSLETGVPSRFSGSGTGKDYTLTISSLQTEDFATYYCQQYWSTPYTFGGGTKVEIK |  |
| 5.04 fold | 7.18 fold | A4 VH1 scFv with humanized parental Vκ1 (scFv) scFv: QVQLVQSGAELKKPGASVKLSCKASGYTFTSYGISWVKQATGQGLEWIGEIYPRSGNTYYNEKFKGRATLTADKSTSTAYMELRSLRSEDSAVYFCARSTTVSPADFRGTGTTVTVSSGGGGSGGGGSGGGGSDIQMTQSPSYLSASVGDRVTITCKASDHINNWLAWYQQKPGQAPRLLISGATSLETGVPSRFSGSGTGKDYTLTISSLQTEDFATYYCQQYWSTPYTFGGGTKVEIK |  |
| 17 fold | 20 fold | A7 VH1 scFv with humanized parental Vκ1 (scFv) scFv: QVQLVQSGAELKKPGASVKLSCKASGYTFTSYGISWVKQATGQGLEWIGEIYPRSGNTYYNEKFKGRATLTADKSTSTAYMELRSLRSEDSAVYFCARSTTVSPPPIWGTGTTVTVSSGGGGSGGGGSGGGGSDIQMTQSPSYLSASVGDRVTITCKASDHINNWLAWYQQKPGQAPRLLISGATSLETGVPSRFSGSGTGKDYTLTISSLQTEDFATYYCQQYWSTPYTFGGGTKVEIK |  |
| 21.7 fold | 25.3 fold | G9 VH1 scFv with humanized parental Vκ1 (scFv) scFv: QVQLVQSGAELKKPGASVKLSCKASGYTFTSYGISWVKQATGQGLEWIGEIYPRSGNTYYNEKFKGRATLTADKSTSTAYMELRSLRSEDSAVYFCARSTTVSPPRVWGTGTTVTVSSGGGGSGGGGSGGGGSDIQMTQSPSYLSASVGDRVTITCKASDHINNWLAWYQQKPGQAPRLLISGATSLETGVPSRFSGSGTGKDYTLTISSLQTEDFATYYCQQYWSTPYTFGGGTKVEIK |  |
| 17.7 fold | 30.8 fold | G7 VH1 scFv with humanized parental Vκ1 (scFv) scFv: QVQLVQSGAELKKPGASVKLSCKASGYTFTSYGISWVKQATGQGLEWIGEIYPRSGNTYYNEKFKGRATLTADKSTSTAYMELRSLRSEDSAVYFCARSTTVAPPGHWGTGTTVTVSSGGGGSGGGGSGGGGSDIQMTQSPSYLSASVGDRVTITCKASDHINNWLAWYQQKPGQAPRLLISGATSLETGVPSRFSGSGTGKDYTLTISSLQTEDFATYYCQQYWSTPYTFGGGTKVEIK |  |
| 3.65 fold | 16.8 fold | E4 VH1 scFv with humanized parental Vκ1 (scFv) scFv: QVQLVQSGAELKKPGASVKLSCKASGYTFTSYGISWVKQATGQGLEWIGEIYPRSGNTYYNEKFKGRATLTADKSTSTAYMELRSLRSEDSAVYFCARSTTVHPDHNWGTGTTVTVSSGGGGSGGGGSGGGGSDIQMTQSPSYLSASVGDRVTITCKASDHINNWLAWYQQKPGQAPRLLISGATSLETGVPSRFSGSGTGKDYTLTISSLQTEDFATYYCQQYWSTPYTFGGGTKVEIK |  |
| 18.9 fold | 29 fold | G4 VH1 scFv with humanized parental Vκ1 (scFv) scFv: QVQLVQSGAELKKPGASVKLSCKASGYTFTSYGISWVKQATGQGLEWIGEIYPRSGNTYYNEKFKGRATLTADKSTSTAYMELRSLRSEDSAVYFCARSTTVSPPHLWGTGTTVTVSSGGGGSGGGGSGGGGSDIQMTQSPSYLSASVGDRVTITCKASDHINNWLAWYQQKPGQAPRLLISGATSLETGVPSRFSGSGTGKDYTLTISSLQTEDFATYYCQQYWSTPYTFGGGTKVEIK |  |
| 18.6 fold | 24.4 fold | C4 VH1 scFv with humanized parental Vκ1 (scFv) scFv: QVQLVQSGAELKKPGASVKLSCKASGYTFTSYGISWVKQATGQGLEWIGEIYPRSGNTYYNEKFKGRATLTADKSTSTAYMELRSLRSEDSAVYFCARSTTVAPPRLWGTGTTVTVSSGGGGSGGGGSGGGGSDIQMTQSPSYLSASVGDRVTITCKASDHINNWLAWYQQKPGQAPRLLISGATSLETGVPSRFSGSGTGKDYTLTISSLQTEDFATYYCQQYWSTPYTFGGGTKVEIK |  |
| 16.4 fold | 26.4 fold | F7 VH1 scFv with humanized parental Vκ1 (scFv) scFv: QVQLVQSGAELKKPGASVKLSCKASGYTFTSYGISWVKQATGQGLEWIGEIYPRSGNTYYNEKFKGRATLTADKSTSTAYMELRSLRSEDSAVYFCARSTTVAPPPLWGTGTTVTVSSGGGGSGGGGSGGGGSDIQMTQSPSYLSASVGDRVTITCKASDHINNWLAWYQQKPGQAPRLLISGATSLETGVPSRFSGSGTGKDYTLTISSLQTEDFATYYCQQYWSTPYTFGGGTKVEIK |  |
| 16.4 fold | 37.4 fold | E7 VH1 scFv with humanized parental Vκ1 (scFv) scFv: QVQLVQSGAEPKKPGASVKLSCKASGYTFTSYGISWVKQATGQGLEWIGEIYPRSGNTYYNEKFKGRATLTADKSTSTAYMELRSLRSEDSAVYFCARSTTVSPPHLWGTGTTVTVSSGGGGSGGGGSGGGGSDIQMTQSPSYLSASVGDRVTITCKASDHINNWLAWYQQKPGQAPRLLISGATSLETGVPSRFSGSGTGKDYTLTISSLQTEDFATYYCQQYWSTPYTFGGGTKVEIK |  |
